Measurements reported in US20030194743A1 (DYAX, published 2003).
Primed or numbered codes have the meaning given here. No end group written: not given here. FITC′ = fluorescein label (fitc)

B1: DX221 (peptide)
peptide: Ac-WTDSLTGLWFPDGGPGPEGGGK
modifications: also: fluorescein-labeled, site not given here
notes: synthetic
B2: 453-01-A08 (peptide)
peptide: KEPCYFYWECAVS
notes: also called TN7-01-A08
B3: 453-02-B02 (peptide)
peptide: GIYDKLTRAWLP
notes: also called PhD-02-B02
B4: 453-02-C12 (peptide)
peptide: GYDVLTKLYFVP
notes: also called PhD-02-C12
B5: 453-02-C04 (peptide)
peptide: WTDSLTGLWFPD
notes: also called PhD-02-C04
B6: 453-01-D11 (peptide)
peptide: AMKCYFPWECANG
notes: also called TN7-01-D11
B7: 453-02-D05 (peptide)
peptide: YFDQLTHLSIKK
notes: also called PhD-02-D05
B8: 453-01-B04 (peptide)
peptide: KSKCFFPWECQQA
notes: also called TN7-01-B04
B9: 453-01-C08 (peptide)
peptide: HVDCLLHPKACYKY
notes: also called TN8-01-C08
B10: 453-01-G11 (peptide)
peptide: LNACDIVHPNYCSGM
notes: also called TN9-01-011
B11: 453-01-G06 (peptide)
peptide: FHPCDMLTGIWCQPN
notes: also called TN9-01-G06
B12: 453-01-H05 (peptide)
peptide: GGNCYTDSLTKLHFCMGD
notes: also called TN12-01-H05
B13: DX876 (peptide)
peptide: Ac-WYDPLTKLWLGGK(FITC′)
notes: synthetic
B14: 453-02-B05 (peptide)
peptide: VHYDSLTKMWTR
notes: also called PhD-02-B05
B15: 453-01-B07 (peptide)
peptide: VPFCDLLTKHCFEA
notes: also called TN8-01-B07
B16: 453-01-F05 (peptide)
peptide: SRLCHMDELTHVCVHF
notes: also called TN10-01-F05

Legend:
[1] = molecular target: T1, B lymphocyte stimulator protein (BLyS) (UniProt Q9Y275 134-285, biotinylated (b-BLyS) in phage screening and phage ELISA; unlabeled in fluorescence anisotropy and column tests); experiment: fluorescence anisotropy
T1 construct: also called b-BLyS; biotinylated recombinant BLyS

[2] = molecular target: T1, B lymphocyte stimulator protein (BLyS); experiment: phage ELISA on biotinylated BLyS
[3] = molecular target: T1, B lymphocyte stimulator protein (BLyS); experiment: fluorescence anisotropy; remark: listed apart in the source
[4] = molecular target: T1, B lymphocyte stimulator protein (BLyS); experiment: not stated at this place (fluorescence anisotropy elsewhere); reference in indirect phage ELISA

T1 sequence (Q9Y275 134-285 limits assumed): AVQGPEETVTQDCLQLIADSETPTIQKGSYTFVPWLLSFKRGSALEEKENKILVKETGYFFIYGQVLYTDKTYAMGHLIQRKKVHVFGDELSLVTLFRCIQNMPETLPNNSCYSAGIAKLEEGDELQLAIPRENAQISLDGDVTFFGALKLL

Row | Binder | ELISA signal [2] [OD630] | further results
1 | B1 |  | Kd [1]: 3000 nM
2 | B2 | 1.2 | 
3 | B3 | 0.6 | 
4 | B4 | 0.8 | 
5 | B5 | 1 | 
6 | B6 | 1 | 
7 | B7 | 0.8 | 
8 | B8 | 0.8 | 
9 | B9 | 1.2 | 
10 | B10 | 0.8 | 
11 | B11 | 1.2 | 
12 | B12 | 1 | 
13 | B13 |  | Kd [3]: 171 nM
14 | B14 | 0.6 | 
15 | B15 | 1.4 | Kd [4]: 700 nM
16 | B16 | 1 | 
